One assay concerns the target T1, human TIM-3 (Homo sapiens, UniProt Q8TDQ0).
T1 construct: expressed in transfected cells
In words: Flow cytometry binding to cells transfected with human TIM-3. As to conditions: overall statement on the binding experiments of Example 1. As for the experimental part:
(§1) Panels of anti-TIM-3 antibodies were assayed for binding to TIM-3 expressing cells.
For orientation: Flow cytometry measures light scatter and fluorescence of single cells or particles in a stream.

Assay [1] concerns IL-12 stimulated CD4+ cells. In words: IFN-gamma secretion and proliferation of IL-12 stimulated CD4+ cells. Format: cell-based. As to conditions: IL-12 stimulated CD4+ T cells. The protocol: The ability of four antibodies to enhance IFN-gamma secretion and proliferation of IL-12 stimulated CD4+ cells was assayed. This assay used the observation that a high dose of IL-12 induces expression of TIM-3 and yields an exhausted phenotype in T cells (see Yang et al., J. Clin. Invest. 122:4 p 1271 2012). […] After PMA/ionomycin restimulation and fixation and permeabilization of cells, the resulting IFN-gamma levels were measured by flow cytometry (y axis) and proliferation was measured by CFSE fluorescence (x axis). FIG. 5B quantifies IFN-gamma expression in cells exposed to these four antibodies.

The subject of assay [2] is naïve T cell / dendritic cell co-culture. In words: Proliferation in autologous T-DC co-cultures (CFSE). The class given is cell-based. As to conditions: 0.01-25 μg/mL, four days, anti-CD3/CD28; vs no antibody and mouse IgG1 control. The text has this:
TIM-3 can be expressed on dendritic cells (DCs) and T cells. Naïve T cells and dendritic cells were isolated from donor samples. Naïve T cells and conventional DCs were cocultured for four days in the presence of anti-CD3/CD28. […] Cell proliferation was detected by a CFSE proliferation assay, which relies on dilution of CFSE staining to detect proliferating cells.

A further assay deals with T2, human TIM-4 (Homo sapiens, UniProt Q96H15).
T2 construct: expressed in transfected cells; host or cells: CHO cells
T2 sequence (Q96H15 25-378): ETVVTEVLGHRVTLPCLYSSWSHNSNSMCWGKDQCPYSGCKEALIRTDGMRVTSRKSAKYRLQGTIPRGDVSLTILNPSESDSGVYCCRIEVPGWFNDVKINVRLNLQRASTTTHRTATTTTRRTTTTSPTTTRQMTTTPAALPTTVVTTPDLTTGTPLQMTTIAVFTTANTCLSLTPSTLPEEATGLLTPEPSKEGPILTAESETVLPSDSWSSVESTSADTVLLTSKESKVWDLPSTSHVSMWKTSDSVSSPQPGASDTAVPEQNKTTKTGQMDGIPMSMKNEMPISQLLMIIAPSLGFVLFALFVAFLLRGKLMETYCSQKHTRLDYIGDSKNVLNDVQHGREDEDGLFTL
In words: Flow cytometry binding to human TIM-4 expressed in CHO cells. The text has this:
(§2) Human TIM-3 has about 23% sequence identity with human TIM-4. Murine TIM-3 has about 66% sequence identity with human TIM-3 and 64% sequence identity with cynomolgus TIM-3.

The next assay concerns the target T3, murine TIM-3 (Mus musculus, UniProt Q8VIM0).
T3 construct: expressed in transfected cells
The experiment in a line: Flow cytometry binding to murine TIM-3 expressed in cells.
Source text: as §2

A further assay has as its system K562 cells. The experiment in a line: In vitro cytotoxic activity of purified NK cells against K562 cells. The class given is cell-based. As to conditions: antibody 10 μg/mL, 4-hour incubation with target cells. The protocol:
5.1 TIM-3 blockade enhances in vitro cytotoxic activity of purified NK cells TIM-3 is highly expressed endogenously on NK (natural killer) cells; its expression is further induced on activated NK cells. TIM-3 may act to restrain NK cell function, as do other inhibitory receptors. See Ndhlovu et al., Blood 119:3734, 2012, and Silva et al., Cancer Immunol Res 2:410, 2014.
In this assay. NK cells were purified from whole blood by negative bead selection and then incubated with antibody (10 μg/mL) at 37° C. After 1 hour, target K562 cells were added. After a 4-hour incubation at 37° C., the percent of K562 cell killing was measured.

Assay [3] concerns the target T4, TIM-3 binding to PtdSer (phosphatidylserine) (Homo sapiens, UniProt Q8TDQ0).
T4 construct: huTIM-3 extracellular domain fused to an Ig Fc region
The experiment in a line: Blocking of TIM-3-Ig binding to PtdSer on anti-CD95-treated WR19L(Fas) cells. As for the experimental part: TIM-3 binds to PtdSer (phosphatidylserine), a lipid that is typically present on the surface of apoptotic cells and not normal cells. Anti-CD95-treated WR19L(Fas) cells were cultured under conditions that promote PtdSer accumulation on the cell surface (flipping of PtdSer from the inner membrane to external exposure upon induction of apoptosis). TIM-3-Ig (huTIM-3 extracellular domain fused to an Ig Fc region) was added to the cells, and binding of TIM-3-Ig to the cells was assayed in the presence of various antibodies.

Another assay relates to cynomolgus TIM-3. In words: Flow cytometry binding to cells transfected with cynoTIM-3. Details: species or system cynomolgus monkey. As to conditions: overall statement on the binding experiments of Example 1. The protocol: as §1
The subject of assay [4] is PD-L1 IgV/TIM-3 mucin construct. The experiment in a line: Domain analysis: binding to PD-L1 IgV/TIM-3 mucin chimeric construct. The conditions noted are these: recombinant construct with TIM-3 IgV domain replaced. As for the experimental part:
TIM-3 has an extracellular IgV domain and a mucin domain. […] 3A. […] The dissociation constant (KD) values were calculated for each tested antibody for the recombinant construct are shown in Table 8.

Here are results for one molecule from patent publication US20250213684A1, “COMBINATION THERAPIES COMPRISING ANTIBODY MOLECULES TO TIM-3” (Novartis AG, priority 2015, published 2025).

T3 sequence (Q8VIM0 20-281): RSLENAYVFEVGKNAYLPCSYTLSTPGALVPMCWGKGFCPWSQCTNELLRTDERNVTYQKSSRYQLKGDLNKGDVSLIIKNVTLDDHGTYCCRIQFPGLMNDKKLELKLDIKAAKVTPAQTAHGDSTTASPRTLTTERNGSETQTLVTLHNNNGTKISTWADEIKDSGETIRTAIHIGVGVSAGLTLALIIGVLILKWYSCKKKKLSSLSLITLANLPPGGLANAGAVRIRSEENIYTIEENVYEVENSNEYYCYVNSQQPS

B1: ABTIM3: murine anti-TIM-3 antibody; VH SEQ ID NO: 1, VL SEQ ID NO: 2 (antibody, V domains shown)
VH: QVQLQQPGAELVKPGASVKMSCKASGYTFTSYNMHWIKQTPGQGLEWIGDIYPGNGDTSYNQKFKGKATLTADKSSSTVYMQLSSLTSEDSAVYYCARVGGAFPMDYWGQGTSVTVSS
VL: DIVLTQSPASLAVSLGQRATISCRASESVEYYGTSLMQWYQQKPGQPPKLLIYAASNVESGVPARFSGSGSGTDFSLNIHPVEEDDIAIYFCQQSRKDPSTFGGGTKLEIK
As for B1, the “affinity for human TIM-3” value in the assay with human TIM-3 is recorded as “sub-nanomolar”. Also, the proliferation result in assay [1] (CFSE) is recorded as “enhances”. Besides, the IFN-gamma secretion entry in [1] (flow cytometry) is given as “enhances”. Moreover, the “proliferating cells (CFSE-diluted cells)” value in assay [2] is reported as “increase in proliferating cells”. Moreover, the “binding to human TIM-4” value in the assay with human TIM-4 was “does not bind”. Further, in the assay with murine TIM-3, the “cross-reactivity with murine TIM-3” value is “not cross-reactive”. Moreover, in the assay on K562 cells, the “percent of K562 cell killing by NK cells” value is reported as “elevated levels of K523 cell killing relative to anti-TIM-3 #2 or the isotype control”. The “inhibition of binding of TIM-3 to PtdSer” value in [3] is recorded as “inhibit the binding of TIM-3 to PtdSer”. In addition, the “affinity for cynomolgus TIM-3” value with cynomolgus TIM-3 is given as “sub-nanomolar”. In addition, the “binding to the chimeric protein of FIG. 3A” value in assay [4] is reported as “do not substantially bind”.
